Laboratory results published in publication PMC4337669.

Test system: H-NS (Escherichia coli)
Assay: EMSA
Conditions: 40 mM HEPES-KOH pH 8.0, 100 mM K-glutamate, 0.022% NP-40, 100 µg/ml BSA, 10% glycerol, 2 or 8 mM Mg aspartate, 20 °C 20 min; 3% native PAGE in 0.5x TBE + 2.5% …

Question: For “λPR-bgl template (linear pMK110 PCR fragment)”, which K half is on record?
Answer: The K half was 2 nM.
